Test results published in patent US20210332112A1 (University of Texas, published 2021).

Molecular target: pertussis toxin (Bordetella pertussis, UniProt P04977 35-269; P04978 28-226; P04979 29-227; P0A3R5 43-152; P04981 35-133)
Assay: ELISA, plate coated with pertussis toxin, antibody titrated, detection with goat anti-human kappa constant domain-HRP [panel C]

B1: hu1B7 antibody (antibody, V domains shown)
VH: EVQLVESGGGLVQPGGSLRLSCAASGYKFTSYWMHWVRQAPGKGLEWVGNIFPGSGSTNYDEKFNSRFTISVDTSKNTAYLQMNSLRAEDTAVYYCTRWLSGAYFDYWGQGTLVTVSS
VL: DIQMTQSPSSLSASVGDRVTITCSASSSVSFMYWYQQKPGKAPKLLIYLTSNLPSGVPSRFSGFGSGTDYTLTISSLQPEDFATYYCQQWSSHPPTFGQGTKVEIK
  EC50 (read off the curve): ~0.05 µg/mL
